Data published in article PMC5074368.

Legend:
[1] = molecular target: Dab2 in the prey vector pVP16 (UniProt P98082); assay: mammalian two-hybrid assay; conditions: n = 5; parent: est. 100; read off a plot
[2] = molecular target: TOM1 in the prey vector pVP16 (UniProt O60784); assay: mammalian two-hybrid assay; conditions: n = 3; parent: est. 100; read off a plot
[3] = molecular target: F-actin (cellular actin filaments of RPE cells), P60709; assay: cell fractionation into supernatant and F-actin-enriched pellet, quantitative immunoblotting; conditions: chain shown with the change, n = 3, parent: est. 1.3, read off a plot

Molecule: Myosin VI globular tail (amino acids 1036–1294), wild type, in the bait vector pM E1251A
- percent of parent (% wildtype control) [1]: 66
- percent of parent (% wildtype control) [2]: 73

Molecule: Myosin VI globular tail (amino acids 1036–1294), wild type, in the bait vector pM E1254A
- percent of parent (% wildtype control) [1]: 88
- percent of parent (% wildtype control) [2]: 87

Molecule: Myosin VI globular tail (amino acids 1036–1294), wild type, in the bait vector pM I1252A
- percent of parent (% wildtype control) [1]: 260
- percent of parent (% wildtype control) [2]: 110

Molecule: Myosin VI globular tail (amino acids 1036–1294), wild type, in the bait vector pM R1255A
- percent of parent (% wildtype control) [1]: 60
- percent of parent (% wildtype control) [2]: 99

B1: GFP-tagged full-length myosin VI-NI, wild type, Q9UM54-1 W1253A (protein)
chain: MEDGKPVWAPHPTDGFQMGNIVDIGPDSLTIEPLNQKGKTFLALINQVFPAEEDSKKDVEDNCSLMYLNEATLLHNIKVRYSKDRIYTYVANILIAVNPYFDIPKIYSSEAIKSYQGKSLGTRPPHVFAIADKAFRDMKVLKMSQSIIVSGESGAGKTENTKFVLRYLTESYGTGQDIDDRIVEANPLLEAFGNAKTVRNNNSSRFGKFVEIHFNEKSSVVGGFVSHYLLEKSRICVQGKEERNYHIFYRLCAGASEDIREKLHLSSPDNFRYLNRGCTRYFANKETDKQILQNRKSPEYLKAGSMKDPLLDDHGDFIRMCTAMKKIGLDDEEKLDLFRVVAGVLHLGNIDFEEAGSTSGGCNLKNKSAQSLEYCAELLGLDQDDLRVSLTTRVMLTTAGGTKGTVIKVPLKVEQANNARDALAKTVYSHLFDHVVNRVNQCFPFETSSYFIGVLDIAGFEYFEHNSFEQFCINYCNEKLQQFFNERILKEEQELYQKEGLGVNEVHYVDNQDCIDLIEAKLVGILDILDEENRLPQPSDQHFTSAVHQKHKDHFRLTIPRKSKLAVHRNIRDDEGFIIRHFAGAVCYETTQFVEKNNDALHMSLESLICESRDKFIRELFESSTNNNKDTKQKAGKLSFISVGNKFKTQLNLLLDKLRSTGASFIRCIKPNLKMTSHHFEGAQILSQLQCSGMVSVLDLMQGGYPSRASFHELYNMYKKYMPDKLARLDPRLFCKALFKALGLNENDYKFGLTKVFFRPGKFAEFDQIMKSDPDHLAELVKRVNHWLTCSRWKKVQWCSLSVIKLKNKIKYRAEACIKMQKTIRMWLCKRRHKPRIDGLVKVGTLKKRLDKFNEVVSVLKDGKPEMNKQIKNLEISIDTLMAKIKSTMMTQEQIQKEYDALVKSSEELLSALQKKKQQEEEAERLRRIQEEMEKERKRREEDEKRRRKEEEERRMKLEMEAKRKQEEEERKKREDDEKRIQAEVEAQLARQKEEESQQQAVLEQERRDRELALRIAQSEAELISDEAQADLALRRNDGTRPKMTPEQMAKEMSEFLSRGPAVLATKAAAGTKKYDLSKWKYAELRDTINTSCDIELLAACREEFHRRLKVYHAWKSKNKKRNTETEQRAPKSVTDYDFAPFLNNSPQQNPAAQIPARQREIEMNRQQRFFRIPFIRPADQYKDPQSKKKGWWYAHFDGPWIARQMELHPDKPPILLVAGKDDMEMCELNLEETGLTRKRGAEILPRQFEEIAERCGGIQYLQNAIESRQARPTYATAMLQSLLK
- other: pellet:supernatant (P:S) ratio [3]: 2.2

B2: GFP-tagged full-length myosin VI-NI, wild type, Q9UM54-1 E1254A (protein)
chain: MEDGKPVWAPHPTDGFQMGNIVDIGPDSLTIEPLNQKGKTFLALINQVFPAEEDSKKDVEDNCSLMYLNEATLLHNIKVRYSKDRIYTYVANILIAVNPYFDIPKIYSSEAIKSYQGKSLGTRPPHVFAIADKAFRDMKVLKMSQSIIVSGESGAGKTENTKFVLRYLTESYGTGQDIDDRIVEANPLLEAFGNAKTVRNNNSSRFGKFVEIHFNEKSSVVGGFVSHYLLEKSRICVQGKEERNYHIFYRLCAGASEDIREKLHLSSPDNFRYLNRGCTRYFANKETDKQILQNRKSPEYLKAGSMKDPLLDDHGDFIRMCTAMKKIGLDDEEKLDLFRVVAGVLHLGNIDFEEAGSTSGGCNLKNKSAQSLEYCAELLGLDQDDLRVSLTTRVMLTTAGGTKGTVIKVPLKVEQANNARDALAKTVYSHLFDHVVNRVNQCFPFETSSYFIGVLDIAGFEYFEHNSFEQFCINYCNEKLQQFFNERILKEEQELYQKEGLGVNEVHYVDNQDCIDLIEAKLVGILDILDEENRLPQPSDQHFTSAVHQKHKDHFRLTIPRKSKLAVHRNIRDDEGFIIRHFAGAVCYETTQFVEKNNDALHMSLESLICESRDKFIRELFESSTNNNKDTKQKAGKLSFISVGNKFKTQLNLLLDKLRSTGASFIRCIKPNLKMTSHHFEGAQILSQLQCSGMVSVLDLMQGGYPSRASFHELYNMYKKYMPDKLARLDPRLFCKALFKALGLNENDYKFGLTKVFFRPGKFAEFDQIMKSDPDHLAELVKRVNHWLTCSRWKKVQWCSLSVIKLKNKIKYRAEACIKMQKTIRMWLCKRRHKPRIDGLVKVGTLKKRLDKFNEVVSVLKDGKPEMNKQIKNLEISIDTLMAKIKSTMMTQEQIQKEYDALVKSSEELLSALQKKKQQEEEAERLRRIQEEMEKERKRREEDEKRRRKEEEERRMKLEMEAKRKQEEEERKKREDDEKRIQAEVEAQLARQKEEESQQQAVLEQERRDRELALRIAQSEAELISDEAQADLALRRNDGTRPKMTPEQMAKEMSEFLSRGPAVLATKAAAGTKKYDLSKWKYAELRDTINTSCDIELLAACREEFHRRLKVYHAWKSKNKKRNTETEQRAPKSVTDYDFAPFLNNSPQQNPAAQIPARQREIEMNRQQRFFRIPFIRPADQYKDPQSKKKGWWYAHFDGPWIARQMELHPDKPPILLVAGKDDMEMCELNLEETGLTRKRGAEILPRQFEEIWARCGGIQYLQNAIESRQARPTYATAMLQSLLK
- other: pellet:supernatant (P:S) ratio [3]: 0.97

B3: GFP-tagged full-length myosin VI-NI, wild type, Q9UM54-1 I1252A (protein)
chain: MEDGKPVWAPHPTDGFQMGNIVDIGPDSLTIEPLNQKGKTFLALINQVFPAEEDSKKDVEDNCSLMYLNEATLLHNIKVRYSKDRIYTYVANILIAVNPYFDIPKIYSSEAIKSYQGKSLGTRPPHVFAIADKAFRDMKVLKMSQSIIVSGESGAGKTENTKFVLRYLTESYGTGQDIDDRIVEANPLLEAFGNAKTVRNNNSSRFGKFVEIHFNEKSSVVGGFVSHYLLEKSRICVQGKEERNYHIFYRLCAGASEDIREKLHLSSPDNFRYLNRGCTRYFANKETDKQILQNRKSPEYLKAGSMKDPLLDDHGDFIRMCTAMKKIGLDDEEKLDLFRVVAGVLHLGNIDFEEAGSTSGGCNLKNKSAQSLEYCAELLGLDQDDLRVSLTTRVMLTTAGGTKGTVIKVPLKVEQANNARDALAKTVYSHLFDHVVNRVNQCFPFETSSYFIGVLDIAGFEYFEHNSFEQFCINYCNEKLQQFFNERILKEEQELYQKEGLGVNEVHYVDNQDCIDLIEAKLVGILDILDEENRLPQPSDQHFTSAVHQKHKDHFRLTIPRKSKLAVHRNIRDDEGFIIRHFAGAVCYETTQFVEKNNDALHMSLESLICESRDKFIRELFESSTNNNKDTKQKAGKLSFISVGNKFKTQLNLLLDKLRSTGASFIRCIKPNLKMTSHHFEGAQILSQLQCSGMVSVLDLMQGGYPSRASFHELYNMYKKYMPDKLARLDPRLFCKALFKALGLNENDYKFGLTKVFFRPGKFAEFDQIMKSDPDHLAELVKRVNHWLTCSRWKKVQWCSLSVIKLKNKIKYRAEACIKMQKTIRMWLCKRRHKPRIDGLVKVGTLKKRLDKFNEVVSVLKDGKPEMNKQIKNLEISIDTLMAKIKSTMMTQEQIQKEYDALVKSSEELLSALQKKKQQEEEAERLRRIQEEMEKERKRREEDEKRRRKEEEERRMKLEMEAKRKQEEEERKKREDDEKRIQAEVEAQLARQKEEESQQQAVLEQERRDRELALRIAQSEAELISDEAQADLALRRNDGTRPKMTPEQMAKEMSEFLSRGPAVLATKAAAGTKKYDLSKWKYAELRDTINTSCDIELLAACREEFHRRLKVYHAWKSKNKKRNTETEQRAPKSVTDYDFAPFLNNSPQQNPAAQIPARQREIEMNRQQRFFRIPFIRPADQYKDPQSKKKGWWYAHFDGPWIARQMELHPDKPPILLVAGKDDMEMCELNLEETGLTRKRGAEILPRQFEEAWERCGGIQYLQNAIESRQARPTYATAMLQSLLK
- other: pellet:supernatant (P:S) ratio [3]: 1

B4: GFP-tagged full-length myosin VI-NI, wild type, Q9UM54-1 R1255A (protein)
chain: MEDGKPVWAPHPTDGFQMGNIVDIGPDSLTIEPLNQKGKTFLALINQVFPAEEDSKKDVEDNCSLMYLNEATLLHNIKVRYSKDRIYTYVANILIAVNPYFDIPKIYSSEAIKSYQGKSLGTRPPHVFAIADKAFRDMKVLKMSQSIIVSGESGAGKTENTKFVLRYLTESYGTGQDIDDRIVEANPLLEAFGNAKTVRNNNSSRFGKFVEIHFNEKSSVVGGFVSHYLLEKSRICVQGKEERNYHIFYRLCAGASEDIREKLHLSSPDNFRYLNRGCTRYFANKETDKQILQNRKSPEYLKAGSMKDPLLDDHGDFIRMCTAMKKIGLDDEEKLDLFRVVAGVLHLGNIDFEEAGSTSGGCNLKNKSAQSLEYCAELLGLDQDDLRVSLTTRVMLTTAGGTKGTVIKVPLKVEQANNARDALAKTVYSHLFDHVVNRVNQCFPFETSSYFIGVLDIAGFEYFEHNSFEQFCINYCNEKLQQFFNERILKEEQELYQKEGLGVNEVHYVDNQDCIDLIEAKLVGILDILDEENRLPQPSDQHFTSAVHQKHKDHFRLTIPRKSKLAVHRNIRDDEGFIIRHFAGAVCYETTQFVEKNNDALHMSLESLICESRDKFIRELFESSTNNNKDTKQKAGKLSFISVGNKFKTQLNLLLDKLRSTGASFIRCIKPNLKMTSHHFEGAQILSQLQCSGMVSVLDLMQGGYPSRASFHELYNMYKKYMPDKLARLDPRLFCKALFKALGLNENDYKFGLTKVFFRPGKFAEFDQIMKSDPDHLAELVKRVNHWLTCSRWKKVQWCSLSVIKLKNKIKYRAEACIKMQKTIRMWLCKRRHKPRIDGLVKVGTLKKRLDKFNEVVSVLKDGKPEMNKQIKNLEISIDTLMAKIKSTMMTQEQIQKEYDALVKSSEELLSALQKKKQQEEEAERLRRIQEEMEKERKRREEDEKRRRKEEEERRMKLEMEAKRKQEEEERKKREDDEKRIQAEVEAQLARQKEEESQQQAVLEQERRDRELALRIAQSEAELISDEAQADLALRRNDGTRPKMTPEQMAKEMSEFLSRGPAVLATKAAAGTKKYDLSKWKYAELRDTINTSCDIELLAACREEFHRRLKVYHAWKSKNKKRNTETEQRAPKSVTDYDFAPFLNNSPQQNPAAQIPARQREIEMNRQQRFFRIPFIRPADQYKDPQSKKKGWWYAHFDGPWIARQMELHPDKPPILLVAGKDDMEMCELNLEETGLTRKRGAEILPRQFEEIWEACGGIQYLQNAIESRQARPTYATAMLQSLLK
- other: pellet:supernatant (P:S) ratio [3]: 1.2
